Laboratory results from US20210113687A1, “METHODS FOR TREATING INFLAMMATION” (NEW YORK UNIVERSITY, priority 2013, published 2021).

Biological target: netrin-1 secreted by mouse macrophages (conditioned medium of oxLDL-, CoCl2-, HIF-1alpha- or palmitate-treated macrophages) (mouse) (UniProt O09118)
Assay: cell-based or functional assay

inhibition of migration of naive macrophages to CCL19 by Ntn1+/+ conditioned medium with UNC5b-Fc: 25%
Substance: recombinant rat UNC5b-Fc chimera (cat #1006-UN, R&D Systems) (from UniProt O08722 27-373) (Fc fusion)
